The source of these data is patent US20130197191A1 (Amgen, published 2013).

Read-outs that look alike come from different tables or passages of the source.

What all share (experiment): phage panning
The target in test [1] is T1, recombinant human β-Klotho (human, UniProt Q86Z14 53-996, limits assumed, biotinylated in the AlphaScreen assays (site not stated)).
T1 construct: also called rhβ-klotho; huβKlotho-His
T1 sequence: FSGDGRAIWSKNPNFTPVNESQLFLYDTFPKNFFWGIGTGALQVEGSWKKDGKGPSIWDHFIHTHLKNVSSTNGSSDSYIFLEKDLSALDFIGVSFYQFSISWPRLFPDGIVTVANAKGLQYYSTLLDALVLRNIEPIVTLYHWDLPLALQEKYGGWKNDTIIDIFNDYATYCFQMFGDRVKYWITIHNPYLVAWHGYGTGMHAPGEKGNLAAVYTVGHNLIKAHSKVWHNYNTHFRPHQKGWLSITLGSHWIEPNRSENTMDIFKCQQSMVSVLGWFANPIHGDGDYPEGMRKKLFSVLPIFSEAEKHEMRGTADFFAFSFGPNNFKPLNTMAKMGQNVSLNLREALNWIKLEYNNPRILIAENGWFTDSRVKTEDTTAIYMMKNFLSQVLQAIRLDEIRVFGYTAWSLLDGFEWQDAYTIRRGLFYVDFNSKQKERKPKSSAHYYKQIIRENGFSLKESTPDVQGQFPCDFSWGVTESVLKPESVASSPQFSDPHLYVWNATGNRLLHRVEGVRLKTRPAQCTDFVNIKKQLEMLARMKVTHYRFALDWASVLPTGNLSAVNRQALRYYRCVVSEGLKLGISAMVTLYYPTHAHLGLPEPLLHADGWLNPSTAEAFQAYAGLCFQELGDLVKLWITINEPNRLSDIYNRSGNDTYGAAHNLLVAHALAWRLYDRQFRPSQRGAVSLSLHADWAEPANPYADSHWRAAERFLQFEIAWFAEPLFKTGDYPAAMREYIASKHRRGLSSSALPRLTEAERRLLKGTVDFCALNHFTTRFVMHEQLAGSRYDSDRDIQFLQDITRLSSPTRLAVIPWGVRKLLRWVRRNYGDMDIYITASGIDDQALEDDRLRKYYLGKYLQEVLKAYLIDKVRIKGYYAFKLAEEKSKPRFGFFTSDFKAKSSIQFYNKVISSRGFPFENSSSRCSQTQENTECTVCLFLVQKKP

Test [2] has as its target T1, recombinant human β-Klotho. The source holds these as a separate data set.
For test [3], the target named is T2, human FGFR1c-Fc (human, UniProt P11362 22-376).
T2 construct: also called huFGFR1c-Fc; huFGFR1c/Fc
T2 sequence: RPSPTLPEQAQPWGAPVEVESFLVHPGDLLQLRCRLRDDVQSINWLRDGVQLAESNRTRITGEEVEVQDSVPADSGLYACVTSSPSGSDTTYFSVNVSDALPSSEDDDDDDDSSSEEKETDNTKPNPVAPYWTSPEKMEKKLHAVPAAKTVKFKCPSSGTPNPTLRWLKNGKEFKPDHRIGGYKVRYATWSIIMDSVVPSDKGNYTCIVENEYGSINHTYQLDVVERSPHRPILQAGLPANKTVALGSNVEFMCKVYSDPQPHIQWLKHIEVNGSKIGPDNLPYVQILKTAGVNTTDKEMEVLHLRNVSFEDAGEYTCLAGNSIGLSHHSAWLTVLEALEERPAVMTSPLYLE

Test [4] deals with T1, recombinant human β-Klotho. This is another data set of the same source.
Test [5] deals with T1, recombinant human β-Klotho. This is another data set of the same source.
Test [6] addresses T1, recombinant human β-Klotho. The source holds these as a separate data set.
In test [7] the target is T1, recombinant human β-Klotho. The source holds these as a separate data set.
In test [8] the target is T1, recombinant human β-Klotho. This is another data set of the same source.

B1: β-Klotho walked dimer BK_R1c_D15 (designed binder)
chain: CLPDEFQCGSGRCIPQTWVCDGLNDCGDGSDEPPAHCSAPASEPPGSLCRSNQFTCGNGNCIPQPWVCDGEDDCGDDSDEESCKEHT
As to B1, in test [1], the binding result is “binds”.

B2: β-Klotho walked dimer BK_R1c_D14 (designed binder)
chain: CLPDEFQCGSGRCIPQTWVCDGLNDCGDGSDEPPAHCSAPASEPPGSLCRSDEFRCGNGRCIPLTWVCDGEDDCQDSSDETGCTTPGHT
With B2, the binding result in test [1] is “binds”.

B3: β-Klotho-binding monomer M27 (designed binder)
chain: CVSDEFPCRDNNICVLLHLLCDGVDDCLDSSDETGCAKPT
Turning to B3, the binding result in test [2] is recorded as “binds”.

B4: FGFR1c-binding monomer M03mut01 (designed binder)
chain: CGAGLFTCRSTNICISQVWVCDGVDDCEDNSDEDSCSAPASEPPGSL
notes: also called M03mutM01
For B4, the binding result in test [3] is “binds”.

B5: β-Klotho walked dimer bKWD01 (designed binder)
chain: CLPDEFQCGSGRCIPQHWLCDGLNDCGDGSDEPPAHCSAPASEPPGSLCRAGEFRCSNGRCVPLTWLCDGEDDCQDNSDEKNCAQPT
Turning to B5, the binding result in test [1] is recorded as “binds”.

B6: β-Klotho-binding monomer bKmutM28 (designed binder)
chain: CPWFHHFKCRNGQRIPLHLVCDGVPDCGDDSDETDCGDSHILPFSTPGPST
For B6, the binding result in test [4] is on record as “binds”.

B7: β-Klotho walked dimer BK_R1c_D22 (designed binder)
chain: CQPDEFTCSSGRCIPQPWLCDGLNDCGDGSDEPPAHCSAPASEPPGSLCRPDEFRCKNGRCIPQTWVCDGEDDCQDSSDETDCESTVRT
Regarding B7, in test [5], the binding result is on record as “binds”.

B8: β-Klotho walked dimer BK_R1c_D18 (designed binder)
chain: CPPDEFQCRGTKKCLPLAWVCDGDNDCEDDSDEESCASAVHTCQSNEFRCRSGRCIPQHWLCDGLNDCGDGSDESQQCSAPASEPPGSL
As to B8, the binding result in test [6] is “binds”.

B9: β-Klotho walked dimer BK_R1c_D05 (designed binder)
chain: CAAGQFRCHNSDTCLPGAWVCDGDNDCGDNSDEASCQKRTCHSFNQFECRNGQCIPLHLVCDGVPDCGDNSDETDCGDSHILPFSTPGPST
Take B9: the binding result in test [7] is recorded as “binds”.

B10: β-Klotho-binding monomer M26 (designed binder)
chain: CVPNQFQCGSGRCLPHPLGCDGVDDCLDGSDEASCAPPT
As to B10, in test [2], the binding result was “binds”.

B11: β-Klotho walked dimer BK_R1c_D24 (designed binder)
chain: CRPDEFPCRSTGRCVPRRWVCDGVDDCGDNSDESLAHCQTPTCQPDEFTCSSGRCIPQPWLCDGLNDCGDGSDEPPAHCSAPASEPPGSL
As to B11, the binding result in test [8] is recorded as “binds”.
